Read-outs that look alike come from different tables or passages of the source. Values belong to the binder of their own block, whether it stands above or below them. Where no end group is shown, it is not given here.
Experiments:
[1] = molecular target: T1, human recombinant adrenomedullin receptor (CRLR + RAMP3) (human); experiment: cell-based or functional assay
[2] = molecular target: T1, human recombinant adrenomedullin …; experiment: cell-based or functional assay; remark: listed apart in the source

T1 sequence (Q16602 whole entry, chain 1 of 2): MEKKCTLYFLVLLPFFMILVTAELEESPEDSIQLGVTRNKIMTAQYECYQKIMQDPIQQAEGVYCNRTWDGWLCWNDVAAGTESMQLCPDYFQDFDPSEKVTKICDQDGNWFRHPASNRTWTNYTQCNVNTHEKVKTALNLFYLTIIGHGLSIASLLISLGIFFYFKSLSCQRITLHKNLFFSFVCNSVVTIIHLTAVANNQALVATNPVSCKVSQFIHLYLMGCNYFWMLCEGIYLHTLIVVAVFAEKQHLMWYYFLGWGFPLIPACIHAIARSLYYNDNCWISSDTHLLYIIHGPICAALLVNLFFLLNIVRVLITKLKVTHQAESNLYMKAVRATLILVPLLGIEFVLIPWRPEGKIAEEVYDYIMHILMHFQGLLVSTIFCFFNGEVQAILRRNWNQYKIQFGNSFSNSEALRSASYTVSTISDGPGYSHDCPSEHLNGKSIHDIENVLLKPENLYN
T1 sequence (O60896 whole entry, chain 2 of 2, further chain): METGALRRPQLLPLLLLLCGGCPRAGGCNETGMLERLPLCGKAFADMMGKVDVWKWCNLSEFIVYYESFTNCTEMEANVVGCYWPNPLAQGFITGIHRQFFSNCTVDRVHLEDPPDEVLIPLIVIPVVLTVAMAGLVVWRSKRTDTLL

- EC50 (read off the curve); cAMP, % activation [1]: ~0.08 nM
Binder: YRQSMNQGSRSNGCRFGTCTFQKLAHQIYQLTDKDKDGMAPRNKISPQGY-NH2 (ends and bridges not checked) [Murine ADM 1-50]

- EC50 (read off the curve); cAMP, % activation [2]: ~1 nM
B1: human Adrenomedullin (mature ADM; amidated ADM; bio-ADM), amino acids 1-52 (peptide)
peptide: YRQSMNNFQGLRSFGCRFGTCTVQKLAHQIYQFTDKDKDNVAPRSKISPQGY-NH2
modifications: ends and bridges not checked

From US20260167706A1 (ADRENOMED, published 2026)
